Experimental data: paper PMC6668613 (Nature plants, 2019)
Like-named read-outs stand apart in the source and are kept apart here. Ends that are not written are not given here.

T1: GST-MPK3 (Arabidopsis thaliana, UniProt Q39023 1-370)
T1 sequence (looked up): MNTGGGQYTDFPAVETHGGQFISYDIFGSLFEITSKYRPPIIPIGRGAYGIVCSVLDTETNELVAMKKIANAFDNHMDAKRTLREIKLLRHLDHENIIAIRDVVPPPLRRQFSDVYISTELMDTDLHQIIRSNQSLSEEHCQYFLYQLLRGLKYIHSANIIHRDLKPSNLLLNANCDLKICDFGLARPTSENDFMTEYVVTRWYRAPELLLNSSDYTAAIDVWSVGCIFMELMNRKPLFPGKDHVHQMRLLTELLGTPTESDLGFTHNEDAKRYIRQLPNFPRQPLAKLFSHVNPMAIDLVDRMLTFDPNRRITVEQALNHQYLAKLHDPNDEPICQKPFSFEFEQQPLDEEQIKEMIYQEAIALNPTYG


How the values were obtained:
Experiment in all cases: BLI
GST-MPK3 = target: T1, GST-MPK3
GST-MPK6 [1] = target: T2, GST-MPK6 (Arabidopsis thaliana, UniProt Q39026 1-395)
GST-MPK6 [2] = target: T2, GST-MPK6; remark: listed apart in the source

T2 sequence (Q39026 whole entry): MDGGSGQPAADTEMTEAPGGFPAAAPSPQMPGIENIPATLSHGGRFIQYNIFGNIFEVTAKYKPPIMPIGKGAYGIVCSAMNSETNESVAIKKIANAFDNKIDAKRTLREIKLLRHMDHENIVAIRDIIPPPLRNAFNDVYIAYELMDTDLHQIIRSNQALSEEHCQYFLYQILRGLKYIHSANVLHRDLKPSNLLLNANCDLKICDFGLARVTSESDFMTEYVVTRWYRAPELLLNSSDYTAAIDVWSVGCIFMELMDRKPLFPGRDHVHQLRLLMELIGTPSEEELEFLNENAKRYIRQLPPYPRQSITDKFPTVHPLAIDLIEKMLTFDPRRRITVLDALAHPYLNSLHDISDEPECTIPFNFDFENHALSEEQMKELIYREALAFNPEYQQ

| Binder | Kd (GST-MPK3) [nM] | Kd (GST-MPK6 [1]) [nM] | Kd (GST-MPK6 [2]) [nM] |
| --- | --- | --- | --- |
| ASSGAQPTLFQKRAAMRQ (also: biotinylated, position not given here) [KRAAM motif peptide, biotinylated] | 2800 ± 700 | 2400 ± 400 | – |
| GGFVGNRAKVLKPLEVLASSGAQPTLFQKRAAMRQ (also: biotinylated, position not given here) [SCRM KiDoK full-length peptide, biotinylated] | – | – | 47 ± 6 |
| GGFVGNRAKVLKPLEVL (also: biotinylated, position not given here) [Docking motif peptide, biotinylated] | – | 2300 ± 500 | – |
